Measurements as given in patent US20240083996A1, “COMPOSITION FOR PROPHYLAXIS OR TREATMENT OF IL-8 RELATED DISEASES” (Chugai Seiyaku Kabushiki Kaisha, priority 2016, published 2024).

Key:
[1] = known values for commercially available antibodies (FIG. 19); cited from earlier work
COPD = details: Am J Respir Crit Care Med. 2015; worsened in the placebo group; cited from earlier work
cystic fibrosis = details: J Cyst Fibros. 2013; cited from earlier work
[2] = test system: soluble forms of FcγRIa and FcγRIIIa in human and cynomolgus monkey; experiment: Binding to various FcγRs (BIACORE T200); details: 20° C., HBS-EP+ (FIG. 27)
Procedure: Soluble FcγRIa and FcγRIIIa in both human and cynomolgus monkey were produced in the form of His-tagged molecules by methods known to those of ordinary skill in the art. […] Next, soluble FcγRIa or FcγRIIIa was injected with a running buffer (used as a reference solution), and was made to interact with the antibodies captured onto the sensor chip. HBS-EP+ (GE Healthcare) was used as the running buffer, and HBS-EP+ was also used to dilute the soluble FcγRIa or FcγRIIIa. […] All measurements were carried out at 20° C.

For Alemtuzumab [Campath], the “frequency of ADA development in humans” value [1] is listed as 45%.

In the case of CC[C@@H](Nc1c(Nc2cccc(C(=O)N(C)C)c2O)c(=O)c1=O)c1ccc(C)o1 [MK7123], the “pulmonary function (FEV1) in COPD patients” value (COPD) is listed as “pulmonary function (FEV1) was improved in the active drug group”.

For Daclizumab [Zenapax], the “frequency of ADA development in humans” value [1] is given as 14%.

For O=C(Nc1ccc(Cl)c(S(=O)(=O)N2CCNCC2)c1O)Nc1cccc(F)c1Cl [Elubrixin], the “topical neutrophil migration in cystic fibrosis” value (cystic fibrosis) is given as “Topical neutrophil migration was observed to be suppressed”.

B1: H1009/L395-F1886m: variable region of H1009/L395 with Fc variant F1886m (antibody)
heavy: QVQLVESGGGLVQPGGSLRLSCAASGFTFSDYYLSWVRQAPGKGLEWVGLIRNKDNYHTPEYSASVKGRFTISRDDSKNSLYLTMSDLKTEDTAVYYCARENHRYDVELAYWGQGTLVTVSSASTKGPSVFPLAPSSKSTSGGTAALGCLVKDYFPEPVTVSWNSGALTSGVHTFPAVLQSSGLYSLSSVVTVPSSSLGTQTYICNVNHKPSNTKVDKKVEPKSCDKTHTCPPCPAPELLGGPSVFLFPPKPKDTLMISRTPEVTCVVVDVSHEDPEVKFNWYVDGVEVHNAKTKPREEQYNSTYRVVSVLTVLHQDWLNGKEYKCKVSNKALPAPIEKTISKAKGQPREPQVYTLPPSREEMTKNQVSLTCLVKGFYPSDIAVEWESNGQPENNYKTTPPVLDSDGSFFLYSKLTVDKSRWQQGNVFSCSVLHEALHAHTTRKELSLSP
light: DIQMTQSPSSLSASVGDRVTITCRASEIIYSYLAWYQQKPGKAPKLLIYKAKTHADGVPSRFSGSGSGTDFTFTISSLQPEDIATYYCKHHFGFPRTFGQGTKVEIKRTVAAPSVFIFPPSDEQLKSGTASVVCLLNNFYPREAKVQWKVDNALQSGNSQESVTEQDSKDSTYSLSSTLTLSKADYEKHKVYACEVTHQGLSSPVTKSFNRGEC
For B1, the “binding to FcγRs (hFcγRIa, hFcγRIIIa, cynoFcγRIa, cynoFcγRIIIa)” value [2] was “bind to all FcγRs”.
